Results taken from patent publication EP4541815A1 (Huahui Health Ltd., dated 2023).

Experiments:
[1] = target: T1, hFcγRIIIa (V158) (recombinant, C-terminal 6xHis tag) (human, UniProt P08637 17-208); assay: Biacore SPR, ratio against A14 WT
T1 construct: also called hFcyR3a V158

[2] = target: T2, hFcγRIIa (R131) (recombinant, C-terminal 6xHis tag) (human, UniProt P12318 34-217); assay: Biacore SPR, ratio against A14 WT
T2 construct: also called hFcyR2a R131
T2 sequence: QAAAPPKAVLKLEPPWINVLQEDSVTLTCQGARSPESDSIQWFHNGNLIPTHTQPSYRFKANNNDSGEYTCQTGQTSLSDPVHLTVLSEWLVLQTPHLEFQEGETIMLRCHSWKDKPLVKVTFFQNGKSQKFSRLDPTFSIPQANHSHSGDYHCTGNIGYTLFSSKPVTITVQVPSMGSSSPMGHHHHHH

[3] = target: T3, hFcγRIIa (H131) (recombinant, C-terminal 6xHis tag) (human, UniProt P12318 34-217); assay: Biacore SPR, ratio against A14 WT
T3 construct: also called hFcyR2a H131
T3 sequence: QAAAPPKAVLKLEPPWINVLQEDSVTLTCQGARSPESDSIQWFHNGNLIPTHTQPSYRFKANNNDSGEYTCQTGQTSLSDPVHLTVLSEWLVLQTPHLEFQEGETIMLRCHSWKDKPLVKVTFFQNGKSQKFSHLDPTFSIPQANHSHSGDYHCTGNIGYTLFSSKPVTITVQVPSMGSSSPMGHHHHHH

[4] = target: T4, hFcγRIa (recombinant, C-terminal 6xHis tag) (human, UniProt P12314 16-292); assay: Biacore SPR, ratio against A14 WT
T4 construct: also called hFcγR1a

[5] = target: T5, hFcγRIIb (recombinant, C-terminal 6xHis tag) (human, UniProt P31994 43-217); assay: Biacore SPR, ratio against A14 WT
T5 construct: also called hFcyR2b
T5 sequence: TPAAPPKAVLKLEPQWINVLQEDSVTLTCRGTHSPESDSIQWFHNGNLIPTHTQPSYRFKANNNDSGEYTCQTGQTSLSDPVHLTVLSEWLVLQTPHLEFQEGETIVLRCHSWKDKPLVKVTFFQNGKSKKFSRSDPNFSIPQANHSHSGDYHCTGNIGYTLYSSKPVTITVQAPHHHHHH

[6] = target: T6, hFcγRIIIa (F158) (recombinant, C-terminal 6xHis tag) (human, UniProt P08637 17-208); assay: Biacore SPR, ratio against A14 WT
T6 construct: also called hFcyR3a F158

[7] = target: T1, hFcγRIIIa (V158) (recombinant, …); assay: Biacore SPR, antibody captured on Protein G CM5 chip, hFcγR as mobile phase, pH 7.0, 1:1 Langmuir fit
[8] = target: T2, hFcγRIIa (R131) (recombinant, …); assay: as above
[9] = target: T3, hFcγRIIa (H131) (recombinant, …); assay: as above
[10] = target: T4, hFcγRIa (recombinant, C-terminal 6xHis …); assay: as above
[11] = target: T5, hFcγRIIb (recombinant, C-terminal 6xHis …); assay: as above
[12] = target: T6, hFcγRIIIa (F158) (recombinant, …); assay: as above
[13] = target: Pre-S1 domain of hepatitis B virus (L protein) on recombinant HBV D genotype virus (hepatitis B virus, D genotype); assay: cell-based or functional assay
[14] = target: FcγRIIIa F158 on Jurkat/NFAT-luc2p/FcγRIIIa F158 cells (UniProt P08637 17-254, limits assumed); assay: cell-based or functional assay
[15] = target: T7, FcγRIIa R131 on Jurkat/NFAT-luc2p/FcγRIIa R131 cells (UniProt P12318 34-317, limits assumed); assay: cell-based or functional assay
T7 sequence (looked up): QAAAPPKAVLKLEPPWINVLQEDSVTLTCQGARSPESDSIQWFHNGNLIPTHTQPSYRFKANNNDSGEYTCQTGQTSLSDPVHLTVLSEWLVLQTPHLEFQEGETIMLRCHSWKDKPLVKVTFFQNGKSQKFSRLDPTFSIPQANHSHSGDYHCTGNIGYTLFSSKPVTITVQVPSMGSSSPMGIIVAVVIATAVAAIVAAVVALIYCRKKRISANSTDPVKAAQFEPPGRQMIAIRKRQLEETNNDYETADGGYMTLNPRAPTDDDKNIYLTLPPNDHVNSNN

T6 sequence (P08637 other isoform, or with tags, fused parts or gaps): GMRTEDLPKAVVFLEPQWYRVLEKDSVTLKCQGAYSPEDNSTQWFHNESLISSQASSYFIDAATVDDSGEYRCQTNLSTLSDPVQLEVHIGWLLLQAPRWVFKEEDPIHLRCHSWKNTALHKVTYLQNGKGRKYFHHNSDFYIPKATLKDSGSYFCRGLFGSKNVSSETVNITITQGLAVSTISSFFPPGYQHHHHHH
T4 sequence (P12314 other isoform, or with tags, fused parts or gaps): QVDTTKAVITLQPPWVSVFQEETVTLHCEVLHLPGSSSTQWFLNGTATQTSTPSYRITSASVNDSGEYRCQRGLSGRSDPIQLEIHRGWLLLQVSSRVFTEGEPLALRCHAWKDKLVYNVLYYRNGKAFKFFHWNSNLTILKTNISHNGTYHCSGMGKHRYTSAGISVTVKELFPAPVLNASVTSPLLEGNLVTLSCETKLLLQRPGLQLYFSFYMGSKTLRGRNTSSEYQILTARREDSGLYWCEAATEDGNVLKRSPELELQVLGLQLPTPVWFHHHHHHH
T1 sequence (P08637 other isoform, or with tags, fused parts or gaps): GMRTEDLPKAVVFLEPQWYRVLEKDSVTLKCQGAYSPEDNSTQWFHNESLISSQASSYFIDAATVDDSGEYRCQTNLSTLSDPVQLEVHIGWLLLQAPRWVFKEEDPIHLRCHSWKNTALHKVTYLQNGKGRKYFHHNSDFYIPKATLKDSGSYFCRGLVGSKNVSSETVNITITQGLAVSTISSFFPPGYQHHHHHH

B1: afuco-A14 GA LS (antibody, human IgG1, lambda)
heavy: QVQLQQSGPGLVKPSQTLSLTCAISGDSVSSNSAAWNWIRQSPSRGLEWLGRTYYRSKWYNDYAVSVKSRITINPDTSKNQFSLQLNSVTPEDTAVYYCARGTRWGMDVWGQGTLVTVSSASTKGPSVFPLAPSSKSTSGGTAALGCLVKDYFPEPVTVSWNSGALTSGVHTFPAVLQSSGLYSLSSVVTVPSSSLGTQTYICNVNHKPSNTKVDKKVEPKSCDKTHTCPPCPAPELLAGPSVFLFPPKPKDTLMISRTPEVTCVVVDVSHEDPEVKFNWYVDGVEVHNAKTKPREEQYNSTYRVVSVLTVLHQDWLNGKEYKCKVSNKALPAPIEKTISKAKGQPREPQVYTLPPSRDELTKNQVSLTCLVKGFYPSDIAVEWESNGQPENNYKTTPPVLDSDGSFFLYSKLTVDKSRWQQGNVFSCSVLHEALHSHYTQKSLSLSPGK
light: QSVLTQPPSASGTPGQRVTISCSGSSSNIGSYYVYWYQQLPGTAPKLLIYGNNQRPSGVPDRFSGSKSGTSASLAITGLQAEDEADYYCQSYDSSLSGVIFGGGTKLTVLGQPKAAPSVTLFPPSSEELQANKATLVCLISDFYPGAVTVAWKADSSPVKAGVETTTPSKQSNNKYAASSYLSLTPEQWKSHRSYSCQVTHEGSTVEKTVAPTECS
Fold (KD of A14 WT over KD of afuco-A14 GA LS) [1]: 7.89 fold
Fold (KD of A14 WT over KD of afuco-A14 GA LS) [2]: 3.83 fold
Fold (KD of A14 WT over KD of afuco-A14 GA LS) [3]: 4.63 fold
Fold (KD of A14 WT over KD of afuco-A14 GA LS) [4]: 0.41 fold
Fold (KD of A14 WT over KD of afuco-A14 GA LS) [5]: 0.76 fold
Fold (KD of A14 WT over KD of afuco-A14 GA LS) [6]: 11 fold
Kd [7]: 123 nM
Kd [8]: 204 nM
Kd [9]: 169 nM
Kd [10]: 173 nM
Kd [11]: 7470 nM
Kd [12]: 588 nM
IC50 of inhibition of HBV infection of HepG2-hNTCP cells (HBeAg secretion) [13]: ~0.011 µg/mL
ADCC activity, fold enhancement compared to A14 [14]: 18.6 fold
ADCP activity, fold enhancement compared to A14 [15]: 4.7 fold
